Measurements published in patent publication US20210388102A1.

B1: hMAB-A (2.2) (antibody, human IgG1, kappa, V domains shown)
VH: EVQLVESGGGLVKPGGSLRLSCAASGFTFSSYWMHWVRQAPGKGLEWVGEIIPIFGHTNYNEKFKSRFTISLDNSKNTLYLQMGSLRAEDTAVYYCARGGYYYYGSRDYFDYWGQGTTVTVSS
VL: DIVMTQSPDSLAVSLGERATISCKASQSVDYSGDSYMNWYQQKPGQPPKLLIYAASDLESGIPARFSGSGSGTDFTLTISSLEPEDFATYYCQQSHEDPFTFGQGTKLEIKR
B2: hMAB-A (2B.2) (antibody, V domains shown)
VH: EVQLVESGGGLVKPGGSLRLSCAASGFTFSSYWMHWVRQAPGKGLEWVGEIIPIFGHTNYNEKFKSRFTISLDNSKNTLYLQMGSLRAEDTAVYYCARGGYYYYIGKGVLDYWGQGTTVTVSS
VL: DIVMTQSPDSLAVSLGERATISCKASQSVDYSGDSYMNWYQQKPGQPPKLLIYAASDLESGIPARFSGSGSGTDFTLTISSLEPEDFATYYCQQSHEDPFTFGQGTKLEIK
B3: hMAB-A (2D.2) (antibody, V domains shown)
VH: EVQLVESGGGLVKPGGSLRLSCAASGFTFSSYWMHWVRQAPGKGLEWVGEIIPIFGHTNYNEKFKSRFTISLDNSKNTLYLQMGSLRAEDTAVYYCARGGYYYYTGKGVLDYWGQGTTVTVSS
VL: DIVMTQSPDSLAVSLGERATISCKASQSVDYSGDSYMNWYQQKPGQPPKLLIYAASDLESGIPARFSGSGSGTDFTLTISSLEPEDFATYYCQQSHEDPFTFGQGTKLEIK
B4: hMAB-A (2C.2) (antibody, human IgG1, kappa, V domains shown)
VH: EVQLVESGGGLVKPGGSLRLSCAASGFTFSSYWMHWVRQAPGKGLEWVGEIIPIFGHTNYNEKFKSRFTISLDNSKNTLYLQMGSLRAEDTAVYYCARGGYYYYPRFGWLDYWGQGTTVTVSS
VL: DIVMTQSPDSLAVSLGERATISCKASQSVDYSGDSYMNWYQQKPGQPPKLLIYAASDLESGIPARFSGSGSGTDFTLTISSLEPEDFATYYCQQSHEDPFTFGQGTKLEIKR

Target: His peptide-tagged soluble cynoADAM9 (cynoADAM9-His) (cynomolgus monkey)
Assay: SPR (BIACORE), antibody captured, cynoADAM9-His in flow

Binder | Kd | koff | kon
B1 | 110 nM | 0.022 s⁻¹ | 200000 M⁻¹ s⁻¹
B2 | 0.2 nM | 6.6e-05 s⁻¹ | 340000 M⁻¹ s⁻¹
B3 | 0.7 nM | 0.0003 s⁻¹ | 420000 M⁻¹ s⁻¹
B4 | < 0.3 nM | < 1e-05 s⁻¹ | 350000 M⁻¹ s⁻¹
